Consider 20 molecules from patent publication US20210292393A1 (published 2021).

Where a chain is given by its changes, count along the chain named.

First the molecules themselves.
B1: antibody 351 (antibody, V domains shown)
VH: HVQLVESGGGVVQPGRSLRLSCAASGFISRNYGMEWVRQAPGQGLEWVAGIWYDGSKKYYADSVKGRFTISRDTSKNTLFLQMDSLRAEDTAVFYCATATKTFCGGDCPPGGMDVWGQGTTVTVST
VL: SYVLTQPPSVSVAPGKTAWITCVGNNIESESVHWYQQRPGQAPVLVIYYDSDRPSGIPERFFGSNSGNTATLTISRVEAGDEADYYCQVWDSNSDLMVFGGGTKLTVL
B2: antibody 333 (antibody, V domains shown)
VH: QVHLVESGGGVVLPGRSLRLSCSASQFIFSNYDMHWVRQSPGMGLEWVAGISSDGSDKYYIDSVRGRFTISRDNAKNTLFLQMNSLTTEDTAVYSCAKGGGKFGQYWGRGTLVTVSS
VL: AIQMTQSPSSLSASVGDRVTITCRASQVIRNDLAWFQQKPGEAPNLLVYSASNLQSGVPSRFSGSGSGTDFTLTISSLQPEDFATYYCLQDYSYPYTFGQGTKLDMK
B3: antibody 328 (antibody, V domains shown)
VH: QVQLQESGPGLVKPSGTLSLTCAVSGGSISSSNWWSWVRQPPGKGLEWIGEIYHSGSTNYNPSLKSRVTISVDNSKNQFSLKLSSVTAADTAVYYCARESVAAAGISYYYYGMDVWGQGTTVTVSS
VL: DIQMTQSPSSLSASVGDRVTITCRASQGIRNDLGWYQQKPGKAPKRLIYAASSLQSGVPSRFSGSGSGTEFTLTVSGLQPEDFATYYCLQYNSSPLTFGGGTKVEIK
B4: antibody 332 (antibody, V domains shown)
VH: QVTLRESGPALVKPTQTLTLTCTFSGFSLSTSGMCVSWIRQPPGKALEWLALIDWDDDKYYSTSLKTRLTISKDTSKNQVVLTMTNMDPVDTATYYCARIHDDILTGYHYVDYWGQGTLVTVSS
VL: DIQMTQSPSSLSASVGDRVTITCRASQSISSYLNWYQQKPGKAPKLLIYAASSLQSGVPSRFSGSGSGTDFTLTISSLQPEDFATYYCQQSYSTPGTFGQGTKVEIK
B5: antibody 343 (antibody, V domains shown)
VH: QVQLVESGGDVVQPGTSLRLSCAASGFTFNNYGFHWVRQAPGKGLEWVALISSDGASTHYADSVKGRFTISRDSSVNTLYLQMNSLSLEDTAVYYCATGHCGTTCYYFDYWGQGTLVSVSS
VL: DIQVTQSPSYLSASVGDRVTITCRASQTISTFLQWYQQKVGKAPKLLIYAASTLQSGVPSRFSGSGSGTDFSLTISSLQPEDFATYYCQQSYSAPLSFGGGTKVEIK
B6: antibody 506 (antibody, V domains shown)
VH: QITLKESGPTLVKPTQTLTLTCTFSGFSLSTSGVGVGWIRQPPGKALEWLALIYWDDDKRYSPSLKSRLTITKDTSKNQVVLTMTNMDPVDTATYYCAHHSLSSIFDYWGQGTLVTVSS
VL: QSALTQPASVSGSPGQSITISCTGTSSDVGDYNYVSWYQQHPGKAPKLMIYEVSNRPSGVSNRFSGSKSGNTASLTISGLQAEDEADYYCSSYTSSSTVFGGGTKLTVLG
B7: antibody 494 (antibody, V domains shown)
VH: EVQLVESGGGLVQPGGSLRLSCAASGFTVSSNYMSWVRQAPGKGLEWVSVIYSGGSTFYADSVKGRFTISRDNSKNTLYLQMNSLRAEDTAVYYCARDSGDQLLDYWGQGTLVTVSS
VL: DIQLTQSPSFLSASVGDRVTITCRASQGISSYLAWYQQKPGKAPKLLIYAASTLQSGVPSRFSGSGSGTEFTLTISSLQPEDFATYYCQQLNSYPPFTFGPGTKVDIKR
B8: antibody 292 (antibody, V domains shown)
VH: EVQLVESGGGLIQPGGSLRLSCAASGFTVSSNYMSWVRQAPGKGLEWVSVIYSGGSTYYADSVKGRFTISRDNSKNTLYLQMNSLRAEDTAVYYCARDLQGGGGPWGQGTLVTVSS
VL: AIQMTQSPSSLSASVGDRVTITCRASQGIRNDLGWYQQKPGKAPKLLIYAASSLQSGVPSRFSGSGSGTDFTLTISSLQPEDFATYYCLQDYNYPRTFGQGTKVEIKR
B9: antibody 481 (antibody, V domains shown)
VH: B8 VH with Y58F, D98E, L99V, Q100A, G102T, G103Y, G104D, P105Y
VL: B7 VL with L4M, F10S, L11V, Y32W, T53S, E70D, L91A, Y94F, P96G, F97G
B10: antibody 364 (antibody, V domains shown)
VH: EVQLVESGGGLVQPGRSLRLSCTASGFTFGDYAMSWFRQAPGKGLEWVGFIRSKAYGGTTEYAASVKGRFTISRDDSKSIAYLQMNSLKTEDTAVYYCTRFGIDYDYIWGSYRYTTLFDYWGQGTLVTVSS
VL: not shown
B11: antibody 562 (antibody, V domains shown)
VH: QVQLVESGGGVVQPGRSLRLSCAASGFTFSSYAMHWVRQAPGKGLEWVAVISYDGSNKYYADSVKGRFTISRDNSKNTLYLQMNSLRAEDTAVYYCARASSGGYQGPFDPWGQGTLVTVSS
VL: QSALTQPASVSGSPGQSITISCTGTSSDVGGYNYVSWYQQHPGKAPKLMIYDVSNRPSGVSNRFSGSKSGNTASLTISGLQAEDEADYYCSSYTSSSTLLYVFGTGTKVTVLG
B12: antibody 414 (antibody, V domains shown)
VH: QVQLVQSGAEVKKPGASVKVSCKASGYTFTSYYMHWVRQAPGQGLEWMGIINPSGGSTSYAQKFQGRVTMTRDTSTSTVYMELSSLRSEDTAVYYCARDPPGRDFWSGYYFGAPDYYYYYGMDVWGQGTTVTVSS
VL: DIQMTQSPSSLSASVGDRVTITCRASQGISNYLAWFQQKPGKAPKSLIYAASSLQSGVPSKFSGSGSGTDFTLTISSLQPEDFATYYCQQYNSYPYTFGQGTKLEIKR
B13: antibody 462 (antibody, V domains shown)
VH: QVQLVESGGGVVQPGRSLRLSCAASGFTFSSYGMHWVRQAPGKGLEWVAVIWYDGNNKYYADSVKGRFTISRDNSKNTLYLQMNSLRAEDTAVYYCAKDPTWFGELPSYYYYGMDVWGQGTTVTVSS
VL: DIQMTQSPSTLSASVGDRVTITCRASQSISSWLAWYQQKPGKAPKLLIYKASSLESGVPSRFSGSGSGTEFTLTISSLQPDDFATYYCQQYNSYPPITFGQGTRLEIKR
B14: antibody 574 (antibody, V domains shown)
VH: QVQLVESGGGVVQPGRSLRLSCAASGFTFSSYAMHWVRQAPGKGLEWVAVISYDGSNKYYADSVKGRFTISRDNSKNTLYLQMNSLRAEDTAVYYCARTDRYYGSGAHFDYWGQGTLVTVSS
VL: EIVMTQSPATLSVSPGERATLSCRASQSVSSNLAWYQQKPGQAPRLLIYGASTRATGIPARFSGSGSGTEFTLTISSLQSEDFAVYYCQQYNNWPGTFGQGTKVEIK
B15: antibody 570 (antibody, V domains shown)
VH: QVQLQESGPGLVKPSQTLSLTCTVSGGSISSGSYYWSWIRQPAGKGLEWIGRIYTSGSTNYNPSLKSRVTISVDTSKNQFSLKLSSVTAADTAVYYCAREGQWLYRFDYWGQGTLVTVSS
VL: not shown
B16: antibody 431 (antibody, V domains shown)
VH: B11 VH with V48L, A99S, S100F, S101R, Q105Y, G106Y, P107G, F108M, P110V, L116T
VL: DIQLTQSPSFLSASVGDRVTITCRASQGISSYLAWYQQKPGKAPKLLIYAASTLQSGVPSRFSGSGSGTEFTLTISSLQPEDFATYYCQQLNSYPLFTFGPGTKVDIK
B17: antibody 423 (antibody, V domains shown)
VH: EVQLVESGGGLIQPGGSLRISCAASGFTVRNNHMSWVRQAPGKGLEWVSVFYRGGTTYYADSVKGRFTISRDDSKNTVDLQMNSLRGEDTAVYYCARGLSVAASGYFDCWGQGTLVTVSS
VL: DIQMTQSPSSVSASVGDTVTITCRANQGISSWLAWYQQVPGKAPELLIYATSTLQSGVPSRFSGSGSGTDFTLTISSLQPEDFATYYCQQANSFPFTFGPGTKVDIK
B18: antibody 419 (antibody, V domains shown)
VH: QVQLVQSGAEVKKPGASVKVSCKASGYTFTSYYMHWVRQAPGQGLEWMGIINPSGGSTSYAQKFQGRVTMTRDTSTSTVYMELSSLRSEDTAVYYCARDWTQSSGYDYYYGLDVWGQGTTVTVSS
VL: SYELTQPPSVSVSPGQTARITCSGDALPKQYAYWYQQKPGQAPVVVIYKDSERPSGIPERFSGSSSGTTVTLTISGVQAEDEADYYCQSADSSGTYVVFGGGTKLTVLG
B19: antibody 445 (antibody, V domains shown)
VH: QVQLVQSGAEVKKPGASVKVSCKASGYTFTSYYMHWVRQAPGQGLEWMGIINPSGGSTSYAQKFQGRVTMTRDTSTSTVYMELSSLRSEDTAVYYCARDPTEVGATSEYYYYGMDVWGQGTTVTVSS
VL: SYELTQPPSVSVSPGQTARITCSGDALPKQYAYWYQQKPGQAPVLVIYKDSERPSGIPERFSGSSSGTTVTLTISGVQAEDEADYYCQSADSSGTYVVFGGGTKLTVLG
B20: antibody 408 (antibody, V domains shown)
VH: QVQLVESGGGVVQPGRSLRLSCAASGFTFSSYAMHWVRQAPGKGLEWVAVISYDGSNKYYADSVKGRFTISRDNSRNTLYLQMNSLRAEDTAVYYCAKGADTPHYSGYDFLSVGYYYYGMDVWGQGTTVTVSS
VL: DIQMTQSPSSLSASVGDRVTITCRASQSISSYLNWYQQKPGKAPKLLIYAASSFQSGVPSRFSGSRSGTDFTLTISSLQPEDFATYYCQQSYSAPFTFGPGTKVDIKR

One assay has as its target T1, SARS-CoV-2 full length spike protein (wild type) (SARS-CoV-2, UniProt P0DTC2 14-1208).
T1 construct: also called SARS-CoV-2 spike; S protein
The assay is described as follows: multiplexed bead assay, flow cytometry; column D.
As for B1, the binding result is “no binding”.

For B2, the binding result was “no binding”.

For the molecule B3, the binding result is on record as “no binding”.

B4: the binding result is given as “no binding”.

For B5, the binding result is reported as “no binding”.

The next assay addresses T2, SARS-CoV-2 spike protein (nCoV-S Spike Protein Trimer, NIH) (SARS-CoV-2, UniProt P0DTC2 14-1208).
T2 construct: also called S protein
The assay is described as follows: HT-SPR (Carterra LSA), mAb on chip, SARS-CoV-2 spike protein titrated, 37 C.
The Kd is the constant that tells how readily two partners part at equilibrium. The molecule B6 returned a dissociation constant (Kd) of 0.0693 nM.

The molecule B7 returned a dissociation constant Kd of 0.225 nM.

Consider B8, for which the Kd was 0.0786 nM.

B9 returned an equilibrium dissociation constant (Kd) of 0.234 nM.

B10 had a Kd of 0.0233 nM.

The molecule B11 had a Kd of 0.138 nM.

In the case of B12, the affinity, expressed as Kd, was 5.21 nM.

As for B13, the affinity, expressed as Kd, was 4.62 nM.

Another assay concerns the target SARS-CoV-2 spike protein (SARS-CoV-2, UniProt P0DTC2 14-1208). The assay is described as follows: HT-SPR, Carterra LSA; mAb coupled to chip, antigen injected; 1:1 fit.
One may read the koff as a measure of how fast the partners let go of each other. Read a low koff as slow dissociation. A word on the kon: it is a measure of how fast the partners come together. B14: the affinity, expressed as Kd, was 2.28 nM; the koff stood at 0.0003 s⁻¹; the kon came to 132000 M⁻¹ s⁻¹.

B15 showed a dissociation constant Kd of 0.0454 nM, a koff of 1e-05 s⁻¹ and an on-rate (kon) of 220000 M⁻¹ s⁻¹.

The next assay addresses SARS-CoV-2 full length spike protein, wild type, expressed on the surface of transiently transfected CHO cells (SARS-CoV-2, UniProt P0DTC2 14-1273).
Experiment: not given
Turning to B16, the “median fluorescence fold over isotype control” value is 10.7 fold over isotype.

For B17, the “median fluorescence fold over isotype control” value stood at 14.6 fold over isotype.

Another assay has as its target 2019 nCoV Spike Protein (RBD, His tag) (SARS-CoV-2, UniProt P0DTC2 329-520). The assay is described as follows: HT-SPR (Carterra LSA), mAb on chip, RBD (His tag) in solution, 25 C.
Turning to B6, the affinity, expressed as Kd, was 14.7 nM.

In turn, B7 yielded a Kd of 13.5 nM.

The molecule B8 registered a Kd of 6.78 nM.

On to B9, for which the affinity, expressed as Kd, was 14.1 nM.

A further assay has as its target T2, SARS-CoV-2 spike protein (nCoV-S Spike …). The assay is described as follows: HT-SPR (Carterra LSA), mAb on chip, SARS-CoV-2 spike protein titrated, 25 C.
On to B6, for which the Kd came out at 0.0491 nM.

In the case of B7, the Kd stood at 0.0835 nM.

B8 had a Kd of 0.0608 nM.

The molecule B9 gave an equilibrium dissociation constant (Kd) of 0.118 nM.

In turn, B10 had a Kd of 7.61 nM.

Molecule B11 returned an equilibrium dissociation constant (Kd) of 0.173 nM.

Molecule B12 gave a Kd of 7.93 nM.

Consider B13, for which binding was put at a Kd of 7.58 nM.

In another assay the target is NCP-CoV (2019-nCoV) Spike Protein (S1 Subunit, His Tag) (SARS-CoV-2, UniProt P0DTC2 16-685). The assay is described as follows: HT-SPR (Carterra LSA), mAb on chip, S1 subunit (His tag) in solution, 25 C.
Consider B6, for which binding was put at a Kd of 90.9 nM.

The molecule B7 came in with a Kd of 189 nM.

In the case of B8, the Kd stood at 118 nM.

On to B9, for which binding was put at a Kd of 170 nM.

For the molecule B18, the Kd turned out to be 235 nM.

B19 gave a Kd of 613 nM.

In the case of B20, binding was put at a Kd of 171 nM.
